Data on two molecules can be found in PMC4467374.

Experiment [1] addresses tandem tudor domain (TTD) of UHRF1. The experiment in a line: AlphaScreen or HTRF. In general terms: Alpha assays give light when donor and acceptor beads are brought close together.
Experiment [2] shares this target. The experiment in a line: fluorescence polarisation.

No end group written: not given here. Me3 = tri-methyl on lysine side chain

ARTK(Me3)QTARKSTGEW [H3K4me3 competition peptide (low affinity competitor)] had an IC50 in experiment [1] of 95 µM.
With ARTKQTARKSTGEW (here or on the partner: trimethyl-lysine at K9) [H3K9me3 competition peptide (high affinity competitor)], the IC50 in experiment [1] came to 6 µM; in experiment [2], 12 µM.

In general, IC50 refers to the point on the concentration scale where inhibition reaches its midpoint. High values mean weaker potency, low ones greater potency.
